In the series the test system is Escherichia coli TOP10. Briefly: shrunken log2 fold change of peptide-encoding DNA abundance (4.5 h post-induction vs induction); higher = less antimicrobial activity (less host growth inhibition). Particulars: time post-induction: 4.5 h; library: site-saturation at positions 5, 18, 19, 20.
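Further: peptides expressed intracellularly from a pBAD plasmid library in pooled LB shake-flask culture, induced with 0.3% L-arabinose, DNA abundance read by NGS, three biological replicates, DESeq2 with apeglm shrinkage.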

On to RRIRIRPPRLPRPRPRPNNAPRP, for which the “shrunken log2 fold change” value is -0.444. Under RRIRDRPPRLPRPRPRPCHVPRP stands -0.0466.

As to RRIRLRPPRLPRPRPRPSNKPRP, the “shrunken log2 fold change” value was -0.646. Next, RRIRNRPPRLPRPRPRPLDYPRP: -0.309; RRIRGRPPRLPRPRPRPVYQPRP: 0.0322; RRIRTRPPRLPRPRPRPFHHPRP: -0.775. Next, RRIRSRPPRLPRPRPRPHTDPRP: -0.216; RRIRPRPPRLPRPRPRPCMPPRP: -0.534. RRIRERPPRLPRPRPRPFAIPRP: the “shrunken log2 fold change” value was -0.122. Next, RRIRMRPPRLPRPRPRPFGQPRP: 0.0853; RRIRTRPPRLPRPRPRPKVMPRP: -0.243; RRIRTRPPRLPRPRPRPAFYPRP: 0.116. Next, RRIRMRPPRLPRPRPRPDLAPRP: 1.4. Under RRIRIRPPRLPRPRPRPLLDPRP stands -0.444; under RRIRLRPPRLPRPRPRPFIKPRP, -0.66; under RRIRHRPPRLPRPRPRPVVKPRP, -0.132. For the sequence RRIRHRPPRLPRPRPRPYMNPRP, the “shrunken log2 fold change” value is -1.04. Under RRIRHRPPRLPRPRPRPYFVPRP stands -0.84; under RRIRHRPPRLPRPRPRPFTFPRP, -0.0857; under RRIRLRPPRLPRPRPRPCWIPRP, -0.241.

Take RRIRPRPPRLPRPRPRPVQWPRP: the “shrunken log2 fold change” value was found to be 0.151.

In the case of RRIRQRPPRLPRPRPRPEYQPRP, the “shrunken log2 fold change” value was found to be 0.00438. Next, RRIRNRPPRLPRPRPRPTTRPRP: 0.0475; RRIRFRPPRLPRPRPRPSYPPRP: -0.161.

For RRIRVRPPRLPRPRPRPRKDPRP, the “shrunken log2 fold change” value turned out to be 0.0324. Next, RRIRVRPPRLPRPRPRPPCWPRP: 0.422. Under RRIRFRPPRLPRPRPRPHCGPRP stands -0.308; under RRIRERPPRLPRPRPRPMIAPRP, 0.121; under RRIRDRPPRLPRPRPRPMDAPRP, 0.251. Next, RRIRIRPPRLPRPRPRPPASPRP: 0.276. Regarding RRIRLRPPRLPRPRPRPIQFPRP, the “shrunken log2 fold change” value is -0.0198. Under RRIRGRPPRLPRPRPRPARKPRP stands 0.222; under RRIRSRPPRLPRPRPRPHPNPRP, -0.239; under RRIRCRPPRLPRPRPRPSCFPRP, -0.205.

As to RRIRSRPPRLPRPRPRPHEIPRP, the “shrunken log2 fold change” value is -0.346. Under RRIRRRPPRLPRPRPRPITNPRP stands -0.19; under RRIRRRPPRLPRPRPRPQQDPRP, 0.0793; under RRIRIRPPRLPRPRPRPYSYPRP, -0.0485.

Regarding RRIRVRPPRLPRPRPRPGNLPRP, the “shrunken log2 fold change” value is -0.101. Under RRIRWRPPRLPRPRPRPIRAPRP stands -0.0266; under RRIRGRPPRLPRPRPRPTQYPRP, 0.337.

As for RRIRPRPPRLPRPRPRPLAFPRP, the “shrunken log2 fold change” value is -0.0389.

For RRIRNRPPRLPRPRPRPDVMPRP, the “shrunken log2 fold change” value is -0.275.

As to RRIRPRPPRLPRPRPRPEQAPRP, the “shrunken log2 fold change” value came out at 0.0776. Next, RRIRSRPPRLPRPRPRPPMKPRP: 0.194. Under RRIRRRPPRLPRPRPRPSQVPRP stands 0.0533; under RRIRIRPPRLPRPRPRPVVDPRP, -0.105; under RRIRTRPPRLPRPRPRPREAPRP, 0.388. Consider RRIRERPPRLPRPRPRPCRLPRP, for which the “shrunken log2 fold change” value is -0.197.

As to RRIRARPPRLPRPRPRPEVEPRP, the “shrunken log2 fold change” value turned out to be 1.3. Under RRIRSRPPRLPRPRPRPGIIPRP stands -0.454; under RRIRGRPPRLPRPRPRPDTCPRP, 0.131; under RRIRPRPPRLPRPRPRPTGQPRP, 0.152. Under RRIRVRPPRLPRPRPRPHNCPRP stands -0.0364. Under RRIRLRPPRLPRPRPRPRKLPRP stands -0.0264; under RRIRKRPPRLPRPRPRPPECPRP, 0.0514. For RRIRQRPPRLPRPRPRPAQGPRP, the “shrunken log2 fold change” value is -0.0366.

As for RRIRGRPPRLPRPRPRPSPQPRP, the “shrunken log2 fold change” value was 0.826. Next, RRIRKRPPRLPRPRPRPFTCPRP: 0.182; RRIRWRPPRLPRPRPRPGREPRP: 0.412; RRIRLRPPRLPRPRPRPMGAPRP: 0.316.

Turning to RRIRVRPPRLPRPRPRPGEMPRP, the “shrunken log2 fold change” value was determined as 0.329. Next, RRIRTRPPRLPRPRPRPHPNPRP: 0.0697; RRIRTRPPRLPRPRPRPVKSPRP: -0.157; RRIRYRPPRLPRPRPRPSGTPRP: -0.175.

Take RRIRNRPPRLPRPRPRPECFPRP: the “shrunken log2 fold change” value worked out at 0.0864.

RRIRQRPPRLPRPRPRPGDQPRP: the “shrunken log2 fold change” value is -0.0566. For the sequence RRIRWRPPRLPRPRPRPMKWPRP, the “shrunken log2 fold change” value was determined as 0.0452. As to RRIRYRPPRLPRPRPRPMGVPRP, the “shrunken log2 fold change” value was -0.762. Under RRIRHRPPRLPRPRPRPFAAPRP stands -0.0135; under RRIRERPPRLPRPRPRPLNGPRP, -0.254. Turning to RRIRERPPRLPRPRPRPSHHPRP, the “shrunken log2 fold change” value was -0.73. On to RRIRIRPPRLPRPRPRPAPRPRP, for which the “shrunken log2 fold change” value worked out at 0.733. Under RRIRLRPPRLPRPRPRPAPCPRP stands 0.0424. Next, RRIRNRPPRLPRPRPRPSKRPRP: -0.0331; RRIRMRPPRLPRPRPRPDQAPRP: 0.357; RRIRVRPPRLPRPRPRPSRHPRP: -0.0783. Under RRIRMRPPRLPRPRPRPPHPPRP stands 0.873; under RRIRPRPPRLPRPRPRPIHEPRP, 0.152; under RRIRTRPPRLPRPRPRPLFKPRP, 1.5. With RRIRARPPRLPRPRPRPVTNPRP, the “shrunken log2 fold change” value came to 0.275. Under RRIRCRPPRLPRPRPRPELEPRP stands 0.285; under RRIRVRPPRLPRPRPRPMTWPRP, -0.124; under RRIRDRPPRLPRPRPRPHDFPRP, -0.00663.

Turning to RRIRARPPRLPRPRPRPKRCPRP, the “shrunken log2 fold change” value was 0.079. Under RRIRWRPPRLPRPRPRPFNRPRP stands -0.0167; under RRIRYRPPRLPRPRPRPCTQPRP, -1.32; under RRIRERPPRLPRPRPRPWNWPRP, -0.131. As for RRIRARPPRLPRPRPRPHPCPRP, the “shrunken log2 fold change” value is 0.206.

On to RRIRRRPPRLPRPRPRPTDYPRP, for which the “shrunken log2 fold change” value was -0.00271. Under RRIRWRPPRLPRPRPRPFPAPRP stands 0.342; under RRIRGRPPRLPRPRPRPDFCPRP, 2.03; under RRIRSRPPRLPRPRPRPYEQPRP, -0.0601.

For RRIRQRPPRLPRPRPRPMQYPRP, the “shrunken log2 fold change” value is -0.309. Under RRIRRRPPRLPRPRPRPALTPRP stands 0.258. Next, RRIRYRPPRLPRPRPRPHRMPRP: -1.51. Under RRIRLRPPRLPRPRPRPIIMPRP stands -0.252. With RRIRGRPPRLPRPRPRPSSNPRP, the “shrunken log2 fold change” value came to 0.369. Under RRIRYRPPRLPRPRPRPISRPRP stands -0.113; under RRIRFRPPRLPRPRPRPHKRPRP, 0.0127. Under RRIRHRPPRLPRPRPRPEDDPRP stands 0.141; under RRIRARPPRLPRPRPRPFNLPRP, -0.173; under RRIRARPPRLPRPRPRPGQCPRP, 0.203. Under RRIRHRPPRLPRPRPRPCYWPRP stands -0.026; under RRIRERPPRLPRPRPRPSYSPRP, -0.147; under RRIRPRPPRLPRPRPRPIKYPRP, 0.32. RRIRNRPPRLPRPRPRPWCQPRP: the “shrunken log2 fold change” value was -0.0618. RRIRTRPPRLPRPRPRPCYEPRP: the “shrunken log2 fold change” value is -0.549. Under RRIRMRPPRLPRPRPRPNLCPRP stands 0.015. Next, RRIRSRPPRLPRPRPRPCTIPRP: -0.148; RRIRPRPPRLPRPRPRPSDYPRP: -0.691. Take RRIRSRPPRLPRPRPRPMRRPRP: the “shrunken log2 fold change” value was found to be 0.732. Next, RRIRGRPPRLPRPRPRPQPGPRP: 0.606; RRIRLRPPRLPRPRPRPPIFPRP: -0.0913. Next, RRIRERPPRLPRPRPRPLMSPRP: -0.406; RRIRNRPPRLPRPRPRPFMHPRP: -0.142. Under RRIRKRPPRLPRPRPRPPEQPRP stands 0.0815; under RRIRRRPPRLPRPRPRPSQWPRP, 0.264; under RRIRWRPPRLPRPRPRPLDMPRP, 0.14. For RRIRARPPRLPRPRPRPSVGPRP, the “shrunken log2 fold change” value was 0.324.

RRIRLRPPRLPRPRPRPEGCPRP: the “shrunken log2 fold change” value stood at 0.191. Next, RRIRVRPPRLPRPRPRPTPGPRP: 0.258; RRIRDRPPRLPRPRPRPQRGPRP: 0.0499; RRIRGRPPRLPRPRPRPWHGPRP: -0.163. On to RRIRNRPPRLPRPRPRPMGDPRP, for which the “shrunken log2 fold change” value was -0.00663.

The values are drawn from the supplement of paper PMC9112550, “Optimization of the antimicrobial peptide Bac7 by deep mutational scanning” (BMC Biology, 2022).
